Results published in US12084522B2, “Peptides, combination of peptides, and cell based medicaments for use in immunotherapy against urinary bladder cancer and other cancers” (Immatics Biotechnologies GmbH, priority 2016, dated 2024).

target: HLA-A*02:01 (Homo sapiens, UniProt P04439, D140Y/D185E/D98H/E176V/E277Q/G131W/G231S/I119V/I121R/I166T/I218V/L300P/L318F/N151K/N90K/P208A/P217A/Q86G/Q94H/R138H/R169H/T345S); assay: MHC binding assay (UV-ligand exchange, β2m ELISA, peptide exchange yield); settings: binding to HLA-A*02:01 ranged by peptide exchange yield (UV-ligand exchange, β2m ELISA)
Excerpt: Candidate peptides for T cell based therapies according to the present invention were further tested for their MHC binding capacity (affinity). The individual peptide-MHC complexes were produced by UV-ligand exchange, where a UV-sensitive peptide is cleaved upon UV-irradiation, and exchanged with the peptide of interest as analyzed. Only peptide candidates that can effectively bind and stabilize the peptide-receptive MHC molecules prevent dissociation of the MHC complexes. To determine the yield of the exchange reaction, an ELISA was performed based on the detection of the light chain (β2 m) of stabilized MHC complexes. The assay was performed as generally described in Rodenko et al. (Rodenko et al., 2006).
96 well MAXISorp plates (NUNC) were coated over night with 2 μg/ml streptavidin in PBS at room temperature, washed 4× and blocked forth at 37° C. in 2% BSA containing blocking buffer. Refolded HLA-A*02:01/MLA-001 monomers served as standards, covering the range of 15-500 ng/ml. Peptide-MHC monomers of the UV-exchange reaction were diluted 100 fold in blocking buffer. Samples were incubated for 1 h at 37° C., washed four times, incubated with 2 ug/ml HRP conjugated anti-β2 m for 1 h at 37° C., washed again and detected with TMB solution that is stopped with […]. Absorption was measured at 450 nm. Candidate peptides that show a high exchange yield (preferably higher than 50%, most preferred higher than 75%) are generally preferred for a generation and production of antibodies or fragments thereof, and/or T cell receptors or fragments thereof, as they show sufficient avidity to the MHC molecules and prevent dissociation of the MHC complexes.

Peptide exchange | Substance
+++ (>50 = +++) | 21 (TLIEDDALNGA; listed as Homo sapiens) [compound 21]
+++ (>50 = +++) | 64 (GLLSQGSPL; listed as Homo sapiens) [compound 64]
+++ (>50 = +++) | 68 (TMIVSLAAV; listed as Homo sapiens) [compound 68]
+++ (>50 = +++) | 117 (YMLDIFHEVL; listed as Homo sapiens) [compound 117]
+++ (>50 = +++) | 105 (TLFPSKIGV; listed as Homo sapiens) [compound 105]
+++ (>50 = +++) | 86 (FLISLIISV; listed as Homo sapiens) [compound 86]
++++ (>75% = ++++) | 103 (GLYSGEVLV; listed as Homo sapiens) [compound 103]
+++ (>50 = +++) | 42 (FLIDASQRV; listed as Homo sapiens) [compound 42]
+++ (>50 = +++) | 81 (SLDKGTLYI; listed as Homo sapiens) [compound 81]
++++ (>75% = ++++) | 123 (NLAGVYSEV; listed as Homo sapiens) [compound 123]
+++ (>50 = +++) | 72 (SLFTGLRSI; listed as Homo sapiens) [compound 72]
+++ (>50 = +++) | 96 (KLTNGIWVL; listed as Homo sapiens) [compound 96]
++++ (>75% = ++++) | 140 (ALLDGRVQL; listed as Homo sapiens) [compound 140]
+++ (>50 = +++) | 63 (LLAGLLVGV; listed as Homo sapiens) [compound 63]
+++ (>50 = +++) | 90 (GMTELYFQL; listed as Homo sapiens) [compound 90]
+++ (>50 = +++) | 118 (RLLDFPTLLV; listed as Homo sapiens) [compound 118]
++++ (>75% = ++++) | 83 (VILDKYYFL; listed as Homo sapiens) [compound 83]
+++ (>50 = +++) | 147 (QMLELITRL; listed as Homo sapiens) [compound 147]
+++ (>50 = +++) | 136 (GLSEPIFQL; listed as Homo sapiens) [compound 136]
++ (>20% = ++) | 107 (LTLAKLEKV; listed as Homo sapiens) [compound 107]
+++ (>50 = +++) | 135 (FLLPLIIVL; listed as Homo sapiens) [compound 135]
++++ (>75% = ++++) | 87 (RLLELLQEA; listed as Homo sapiens) [compound 87]
+++ (>50 = +++) | 7 (QMFEGQILDV; listed as Homo sapiens) [compound 7]
+++ (>50 = +++) | 88 (ALASLENHV; listed as Homo sapiens) [compound 88]
+++ (>50 = +++) | 74 (LLQEGEVYSA; listed as Homo sapiens) [compound 74]

Peptide exchange | Substance
++++ (>75% = ++++) | 131 (ILTSIQSLL; listed as Homo sapiens) [compound 131]
++++ (>75% = ++++) | 28 (GLIDSLMAYV; listed as Homo sapiens) [compound 28]
+++ (>50 = +++) | 116 (QLAWFDTDL; listed as Homo sapiens) [compound 116]
+++ (>50 = +++) | 56 (ILLRDLPTL; listed as Homo sapiens) [compound 56]
+++ (>50 = +++) | 32 (YQAPDIDVQL; listed as Homo sapiens) [compound 32]
+++ (>50 = +++) | 44 (GLAQDPKSLQL; listed as Homo sapiens) [compound 44]
++++ (>75% = ++++) | 122 (ILEPSLYTV; listed as Homo sapiens) [compound 122]
++++ (>75% = ++++) | 1 (ILLQASVQV; listed as Homo sapiens) [compound 1]
+++ (>50 = +++) | 119 (SLDEKQNLV; listed as Homo sapiens) [compound 119]
+++ (>50 = +++) | 99 (ALIGDDVGL; listed as Homo sapiens) [compound 99]
++++ (>75% = ++++) | 55 (KLLETKWTL; listed as Homo sapiens) [compound 55]
+++ (>50 = +++) | 106 (ILLDTPLFL; listed as Homo sapiens) [compound 106]
+++ (>50 = +++) | 134 (IVAPGTFEV; listed as Homo sapiens) [compound 134]
+++ (>50 = +++) | 33 (VLFGEITRL; listed as Homo sapiens) [compound 33]
++++ (>75% = ++++) | 20 (YLPDSLTQL; listed as Homo sapiens) [compound 20]
++ (>20% = ++) | 45 (IIDSSPTAL; listed as Homo sapiens) [compound 45]
+++ (>50 = +++) | 40 (VIADRVVTV; listed as Homo sapiens) [compound 40]
++++ (>75% = ++++) | 31 (SLFDGIATGL; listed as Homo sapiens) [compound 31]
+++ (>50 = +++) | 101 (ILDEMRAQL; listed as Homo sapiens) [compound 101]
++++ (>75% = ++++) | 113 (FVFEPPPGV; listed as Homo sapiens) [compound 113]
++++ (>75% = ++++) | 95 (YLIGQHVTA; listed as Homo sapiens) [compound 95]
+++ (>50 = +++) | 143 (TLVTGLASV; listed as Homo sapiens) [compound 143]
+++ (>50 = +++) | 62 (GQLDFSEFL; listed as Homo sapiens) [compound 62]
+++ (>50 = +++) | 76 (AVVSSVNTV; listed as Homo sapiens) [compound 76]
+++ (>50 = +++) | 8 (ALSFSSSAGPGLLKA; listed as Homo sapiens) [compound 8]

Peptide exchange | Substance
+++ (>50 = +++) | 138 (YLTNEGIQYL; listed as Homo sapiens) [compound 138]
++++ (>75% = ++++) | 128 (KLWGQSIQL; listed as Homo sapiens) [compound 128]
+++ (>50 = +++) | 69 (QIWDKILSV; listed as Homo sapiens) [compound 69]
++++ (>75% = ++++) | 141 (SMFGAGLTV; listed as Homo sapiens) [compound 141]
+++ (>50 = +++) | 52 (SLATLEGIQL; listed as Homo sapiens) [compound 52]
+++ (>50 = +++) | 109 (RLIDDMVAQA; listed as Homo sapiens) [compound 109]
+++ (>50 = +++) | 89 (YLFPETEFI; listed as Homo sapiens) [compound 89]
+++ (>50 = +++) | 139 (LLYPTEITV; listed as Homo sapiens) [compound 139]
+++ (>50 = +++) | 127 (KLNATNIEL; listed as Homo sapiens) [compound 127]
++++ (>75% = ++++) | 77 (KVFGGFQVV; listed as Homo sapiens) [compound 77]
++++ (>75% = ++++) | 130 (TLTSKLYSL; listed as Homo sapiens) [compound 130]
++++ (>75% = ++++) | 3 (YLDEIPPKFSM; listed as Homo sapiens) [compound 3]
++ (>20% = ++) | 71 (LLSEDFVSV; listed as Homo sapiens) [compound 71]
+++ (>50 = +++) | 97 (TVGPGLLGV; listed as Homo sapiens) [compound 97]
++++ (>75% = ++++) | 133 (GLDPLGYEIQL; listed as Homo sapiens) [compound 133]
+++ (>50 = +++) | 112 (YLDPSLNSL; listed as Homo sapiens) [compound 112]
+++ (>50 = +++) | 124 (QIDGTLSTI; listed as Homo sapiens) [compound 124]
+++ (>50 = +++) | 48 (VLMDDTDPLV; listed as Homo sapiens) [compound 48]
+++ (>50 = +++) | 37 (ILSAILVHL; listed as Homo sapiens) [compound 37]
++++ (>75% = ++++) | 26 (GLALLYSGV; listed as Homo sapiens) [compound 26]
+++ (>50 = +++) | 35 (KLPEPPPLA; listed as Homo sapiens) [compound 35]
+++ (>50 = +++) | 34 (ALLDEQQVNV; listed as Homo sapiens) [compound 34]
+++ (>50 = +++) | 2 (GLLKAYSIRTA; listed as Homo sapiens) [compound 2]
